# Test results as given in IntAct's records for PubMed 16712842.
# B1: UV excision repair protein RAD23 homolog B (Homo sapiens), P54727 (parent)
# chain: MQVTLKTLQQQTFKIDIDPEETVKALKEKIESEKGKDAFPVAGQKLIYAGKILNDDTALKEYKIDEKNFVVVMVTKPKAVSTPAPATTQQSAPASTTAVTSSTTTTVAQAPTPVPALAPTSTPASITPASATASSEPAPASAAKQEKPAEKPAETPVATSPTATDSTSGDSSRSNLFEDATSALVTGQSYENMVTEIMSMGYEREQVIAALRASFNNPDRAVEYLLMGIPGDRESQAVVDPPQAASTGAPQSSAVAAAAATTTATTTTTSSGGHPLEFLRNQPQFQQMRQIIQQNPSLLPALLQQIGRENPQLLQQISQHQEHFIQMLNEPVQEAGGQGGGGGGGSGGIAEAGSGHMNYIQVTPQEKEAIERLKALGFPEGLVIQAYFACEKNENLAANFLLQQNFDED
# Variants of: B1
# Settings: with ef1a1_human EEF1A1, P68104
# Sequence of ef1a1_human EEF1A1, P68104 (P68104 whole entry): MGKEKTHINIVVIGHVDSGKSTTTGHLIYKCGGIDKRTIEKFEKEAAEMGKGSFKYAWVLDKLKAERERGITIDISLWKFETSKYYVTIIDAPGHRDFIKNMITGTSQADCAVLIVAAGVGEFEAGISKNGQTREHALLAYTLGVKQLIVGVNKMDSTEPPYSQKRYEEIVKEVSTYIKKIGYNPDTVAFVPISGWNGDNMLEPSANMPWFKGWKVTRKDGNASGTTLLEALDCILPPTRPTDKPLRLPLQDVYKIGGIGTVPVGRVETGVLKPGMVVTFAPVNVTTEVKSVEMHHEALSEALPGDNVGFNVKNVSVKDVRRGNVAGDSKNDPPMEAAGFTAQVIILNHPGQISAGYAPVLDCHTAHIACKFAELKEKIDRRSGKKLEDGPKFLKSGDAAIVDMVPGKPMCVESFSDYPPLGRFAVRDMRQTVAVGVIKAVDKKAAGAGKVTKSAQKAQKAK
row,Variant,effect of a mutation on the interaction
1,K6A,disrupting interaction

# Variants of: B1
# Settings: with uba3_human UBA3, Q8TBC4
# Sequence of uba3_human UBA3, Q8TBC4 (Q8TBC4 whole entry): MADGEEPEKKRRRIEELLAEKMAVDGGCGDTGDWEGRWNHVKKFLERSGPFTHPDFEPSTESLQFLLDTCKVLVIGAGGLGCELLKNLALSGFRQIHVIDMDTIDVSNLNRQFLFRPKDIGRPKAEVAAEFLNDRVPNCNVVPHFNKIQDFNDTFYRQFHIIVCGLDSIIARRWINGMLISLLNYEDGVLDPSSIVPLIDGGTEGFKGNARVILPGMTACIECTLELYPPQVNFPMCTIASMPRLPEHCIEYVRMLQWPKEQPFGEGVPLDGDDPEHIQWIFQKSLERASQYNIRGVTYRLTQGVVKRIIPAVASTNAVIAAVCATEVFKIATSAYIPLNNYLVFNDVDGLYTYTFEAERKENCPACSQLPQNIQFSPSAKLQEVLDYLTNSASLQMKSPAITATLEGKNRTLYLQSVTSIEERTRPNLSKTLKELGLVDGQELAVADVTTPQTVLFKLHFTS
row,Variant,effect of a mutation on the interaction
1,K6A,increasing interaction
